Assay results from article PMC12680046.

What was measured:
[1] = molecular target: mCherry-EGFR (L858R/T790M)-HomoFC (UniProt P00533); experiment: split reporter
[2] = molecular target: mCherry-BICD2N-EGFR (Ex19Del/T790M/C797S)-HomoFC
[3] = molecular target: mCherry-BICD2N-EGFR (Ex19Del/T790M/C797S)-HomoFC; experiment: split reporter

Row | Substance | percent reduction of EGFR oligomerization (HomoFC) [1] [%] | C/N ERK-KTR ratio after EGF stimulation [2] | HomoFC/mCherry ratio (EGF) [3] | fold lower oligomer signal than WT EGFR at the basal level [3] [fold] | fold reduction of the oligomer signal against the nonfused mutant [3] [fold]
1 | YFP–DARPin (E69)–BICD2N (from UniProt Q8TD16 1-594) (designed binder) | 50 |  |  |  | 
2 | mCherry-BICD2N-EGFR (Ex19Del/T790M/C797S)-HomoFC (from UniProt Q8TD16;P00533) (receptor) |  | 0.64 | 0.12 | 3.3 | 18.8
